Reference: PMC9170159 (Proceedings of the National Academy of Sciences of the …, 2022)
Values joined by “and” are separate entries in the source; they are usually repeats but may differ in a detail not shown here. Equal values may be shown once.

B1: 8A4 VHH-hFc fusion protein (Fc fusion)
VHH: EVQLVESGGGLVQPGESLRLSCEASGFTFSSVYMSWVRQAPGKGLEWISTIHPAGGSTYYADSMKDRFTISRDNAKNTLYLQMNSLKSEDTALYYCIIEALSGYRGPGTQVTVSS
notes: also called 8A4 VHH-Fc; source: Expi293 cells, transfected, purified (protein A column)
B2: NCI-CoV-8A2 VHH-hFc fusion protein (Fc fusion)
VHH: AVQLVDSGGGSVQAGGSLRLSCAASGYTYSICTMGWYRQAPGEGLEWVSGINADGSNTHYTDSVKGRFTISRDNAKKTLYLQMNSLKPEDTAIYYCAAHGTYDKYAPCGGFAGTYTYWGQGTQVTVSS
notes: also called 8A2 VHH-Fc; source: Expi293 cells, transfected, purified (protein A column)
B3: NCI-CoV-7A3 VHH-hFc fusion protein (Fc fusion)
VHH: QVQLVESGGGSVQPGGSLRLSCVVSGYTSSSRYMGWFRQVPGKGLEWVSGIKRDGTNTYYADSVKGRFTISQDNAKNTVYLQMNSLKPEDTAMYYCAAGSWYNQWGYSMDYWGKGTQVTVSS
notes: also called 7A3 VHH-Fc; source: Expi293 cells, transfected, purified (protein A column)
B4: 1H6 VHH-hFc fusion protein (Fc fusion)
VHH: AVQLVDSGGGSVQAGGSLNLSCVASGTTLRNGCMAWFRQVPGKEREVVAIIIRATSYTDYADSVKGRFTISQDNAKNTVYLQMKSLTPEDTATYYCAATLYRVNCAKREFDKWGQGTQVTVSS
notes: also called 1H6 VHH-Fc; source: Expi293 cells, transfected, purified (protein A column)

These binders were tested against T1, SARS-CoV-2 (Wuhan-Hu-1) spike receptor-binding domain, His-tagged (SARS-CoV-2, UniProt P0DTC2 319-541) (assay: BLI). Conditions: both partners purified.

| Binder | Kd |
| --- | --- |
| B1 | 0.16 nM |
| B2 | 0.26 nM |
| B3 | 0.2 nM |

Target: T1, SARS-CoV-2 (Wuhan-Hu-1) spike …
Test: BLI
Conditions: both partners purified
Remark: another data set of the same source

| Binder | Kd |
| --- | --- |
| B4 | 37 nM and 42 nM |
| B1 | 0.14 nM and 0.18 nM |
| B2 | 0.26 nM and 0.13 nM |
| B3 | 0.19 nM and 0.2 nM |
